Measured values: patent publication US20220049021A1 (Gilead, published 2022)
Read-outs that look alike come from different tables or passages of the source.

T1: human FLT3 on AML5 cells (human, UniProt P36888 27-993)
T1 sequence (looked up): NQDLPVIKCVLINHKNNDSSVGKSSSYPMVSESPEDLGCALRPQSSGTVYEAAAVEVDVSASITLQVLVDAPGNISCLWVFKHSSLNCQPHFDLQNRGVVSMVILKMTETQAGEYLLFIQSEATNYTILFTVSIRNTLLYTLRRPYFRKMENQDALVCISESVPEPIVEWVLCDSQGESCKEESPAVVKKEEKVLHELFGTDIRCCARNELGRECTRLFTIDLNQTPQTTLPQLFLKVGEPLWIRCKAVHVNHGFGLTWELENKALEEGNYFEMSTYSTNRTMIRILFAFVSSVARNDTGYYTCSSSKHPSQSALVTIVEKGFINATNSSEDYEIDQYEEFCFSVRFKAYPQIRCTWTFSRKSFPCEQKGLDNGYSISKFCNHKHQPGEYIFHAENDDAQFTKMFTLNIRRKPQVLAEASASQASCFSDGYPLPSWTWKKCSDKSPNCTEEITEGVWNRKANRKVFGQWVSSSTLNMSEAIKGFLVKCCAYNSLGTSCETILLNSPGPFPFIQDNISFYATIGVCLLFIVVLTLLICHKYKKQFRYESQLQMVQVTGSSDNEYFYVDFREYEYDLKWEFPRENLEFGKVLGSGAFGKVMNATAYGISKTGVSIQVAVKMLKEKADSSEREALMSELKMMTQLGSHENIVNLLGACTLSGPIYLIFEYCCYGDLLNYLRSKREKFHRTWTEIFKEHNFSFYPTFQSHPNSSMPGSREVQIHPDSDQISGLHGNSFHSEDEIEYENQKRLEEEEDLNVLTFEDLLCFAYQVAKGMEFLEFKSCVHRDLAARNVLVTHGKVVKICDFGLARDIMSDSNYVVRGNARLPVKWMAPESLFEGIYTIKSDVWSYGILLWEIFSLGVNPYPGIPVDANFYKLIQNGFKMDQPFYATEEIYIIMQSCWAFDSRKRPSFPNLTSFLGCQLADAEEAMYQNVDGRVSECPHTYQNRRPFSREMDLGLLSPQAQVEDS


Experiments:
human FLT3 on AML5 cells [1] = target: T1, human FLT3 on AML5 cells; test: cell-based or functional assay
human FLT3 on AML5 cells [2] = target: T1, human FLT3 on AML5 cells; test: cell-based or functional assay; remark: listed apart in the source
human FLT3 on AML5 cells [3] = target: T1, human FLT3 on AML5 cells; test: cell-based or functional assay; remark: listed apart in the source
human FLT3 on AML5 cells [4] = target: T1, human FLT3 on AML5 cells; test: cell-based or functional assay; remark: listed apart in the source
human FLT3 on AML5 cells [5] = target: T1, human FLT3 on AML5 cells; test: cell-based or functional assay; remark: listed apart in the source
[6] = target: T2, recombinant human C1q protein (Fitzgerald) (human, UniProt P02745 23-245; P02746 28-253; P02747 29-245, limits assumed); test: ELISA; test protein immobilised in serial dilution, recombinant human C1q added, anti-C1q-HRP
T2 construct: also called human recombinant complement protein, C1q

[7] = target: T2, recombinant human C1q protein …; test: as above; remark: listed apart in the source

T2 sequence (P02745 23-245 limits assumed, chain 1 of 3): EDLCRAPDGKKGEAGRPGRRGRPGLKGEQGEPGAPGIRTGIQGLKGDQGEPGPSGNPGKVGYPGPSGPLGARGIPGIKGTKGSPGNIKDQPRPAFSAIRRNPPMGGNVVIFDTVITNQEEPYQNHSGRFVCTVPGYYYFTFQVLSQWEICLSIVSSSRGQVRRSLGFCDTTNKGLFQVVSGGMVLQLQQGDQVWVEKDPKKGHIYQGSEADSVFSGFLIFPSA
T2 sequence (P02746 28-253 limits assumed, chain 2 of 3): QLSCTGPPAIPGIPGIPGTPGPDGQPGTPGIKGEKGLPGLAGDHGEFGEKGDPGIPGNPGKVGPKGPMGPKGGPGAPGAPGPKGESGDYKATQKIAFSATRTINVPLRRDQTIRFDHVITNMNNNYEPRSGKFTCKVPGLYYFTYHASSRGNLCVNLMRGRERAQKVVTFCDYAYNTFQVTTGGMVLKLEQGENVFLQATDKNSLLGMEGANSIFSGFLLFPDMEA
T2 sequence (P02747 29-245 limits assumed, chain 3 of 3): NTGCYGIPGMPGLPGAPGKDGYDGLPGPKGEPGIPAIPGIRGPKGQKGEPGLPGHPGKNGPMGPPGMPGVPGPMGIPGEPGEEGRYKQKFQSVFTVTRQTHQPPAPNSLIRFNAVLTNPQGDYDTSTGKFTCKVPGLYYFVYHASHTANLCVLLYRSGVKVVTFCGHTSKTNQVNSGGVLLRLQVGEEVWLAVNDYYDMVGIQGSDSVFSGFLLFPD

Binder | EC50 (nM), Inducing Proliferation of AML5 Cells (human FLT3 on AML5 cells [1]) | EC50 (nM), Inducing Proliferation of AML5 Cells (human FLT3 on AML5 cells [2]) | EC50 (nM), Inducing Proliferation of AML5 Cells (human FLT3 on AML5 cells [3]) | EC50 (nM), AML5 Proliferation Assay (human FLT3 on AML5 cells [4]) | EC50 (nM), AML5 Proliferation Assay (human FLT3 on AML5 cells [5]) | binding result [6] | binding result [7]
human FLT3-ligand human hingeless IgG1 fusion protein (SEQ ID NO:1) (Fc fusion, Made in Expi293 or ExpiCHO; also called FLT3L ECD-hingeless hG1; hFLT3L ECD) TQDCSFQHSPISSDFAVKIRELSDYLLQDYPVTVASNLQDEELCGGLWRLVLAQRWMERLKTVAGSKMQGLLERVNTEIHFVTKCAFQPPPSCLRFVQTNISRLLQETSEQLVALKPWITRQNFSRCLELQCQPDSSTLPPPWSPRPLEATAPTAPQGGPSVFLFPPKPKDTLMISRTPEVTCVVVDVSHEDPEVKFNWYVDGVEVHNAKTKPREEQYNSTYRVVSVLTVLHQDWLNGKEYKCKVSNKALPAPIEKTISKAKGQPREPQVYTLPPSREEMTKNQVSLTCLVKGFYPSDIAVEWESNGQPENNYKTTPPVLDSDGSFFLYSKLTVDKSRWQQGNVFSCSVMHEALHNHYTQKSLSLSPGK | 0.04 nM | 0.034 nM | 0.078 nM | 0.08 nM | 0.05 nM | no binding (tested: 94 nM (top of the titration)) | 
human FLT3-ligand (S128A/S151A) human hingeless IgG1 fusion protein (SEQ ID NO:5) (Fc fusion, also called Aglyco-FLT3L ECD (S128A/S151A) hingeless hG1) TQDCSFQHSPISSDFAVKIRELSDYLLQDYPVTVASNLQDEELCGGLWRLVLAQRWMERLKTVAGSKMQGLLERVNTEIHFVTKCAFQPPPSCLRFVQTNIARLLQETSEQLVALKPWITRQNFARCLELQCQPDSSTLPPPWSPRPLEATAPTAPQGGPSVFLFPPKPKDTLMISRTPEVTCVVVDVSHEDPEVKFNWYVDGVEVHNAKTKPREEQYNSTYRVVSVLTVLHQDWLNGKEYKCKVSNKALPAPIEKTISKAKGQPREPQVYTLPPSREEMTKNQVSLTCLVKGFYPSDIAVEWESNGQPENNYKTTPPVLDSDGSFFLYSKLTVDKSRWQQGNVFSCSVMHEALHNHYTQKSLSLSPGK |  |  |  | 0.078 nM |  | no binding (tested: 94 nM (top of the titration)) | 
human FLT3-ligand human hingeless IgG1 (M252Y/S254T/T256E) fusion protein (SEQ ID NO:9) (Fc fusion, also called FLT3L ECD-hingeless hG1 (M252Y/S254T/T256E)) TQDCSFQHSPISSDFAVKIRELSDYLLQDYPVTVASNLQDEELCGGLWRLVLAQRWMERLKTVAGSKMQGLLERVNTEIHFVTKCAFQPPPSCLRFVQTNISRLLQETSEQLVALKPWITRQNFSRCLELQCQPDSSTLPPPWSPRPLEATAPTAPQGGPSVFLFPPKPKDTLYITREPEVTCVVVDVSHEDPEVKFNWYVDGVEVHNAKTKPREEQYNSTYRVVSVLTVLHQDWLNGKEYKCKVSNKALPAPIEKTISKAKGQPREPQVYTLPPSREEMTKNQVSLTCLVKGFYPSDIAVEWESNGQPENNYKTTPPVLDSDGSFFLYSKLTVDKSRWQQGNVFSCSVMHEALHNHYTQKSLSLSPGK |  |  |  |  | 0.037 nM |  | no binding (tested: 94 nM (top of the titration))
human FLT3-ligand (Δ5 amino acid) human hingeless IgG1 fusion protein (SEQ ID NO:2) (Fc fusion, also called FLT3L ECD (Δ C-term 5aa (PTAPQ))-hingeless hG1) TQDCSFQHSPISSDFAVKIRELSDYLLQDYPVTVASNLQDEELCGGLWRLVLAQRWMERLKTVAGSKMQGLLERVNTEIHFVTKCAFQPPPSCLRFVQTNISRLLQETSEQLVALKPWITRQNFSRCLELQCQPDSSTLPPPWSPRPLEATAGGPSVFLFPPKPKDTLMISRTPEVTCVVVDVSHEDPEVKFNWYVDGVEVHNAKTKPREEQYNSTYRVVSVLTVLHQDWLNGKEYKCKVSNKALPAPIEKTISKAKGQPREPQVYTLPPSREEMTKNQVSLTCLVKGFYPSDIAVEWESNGQPENNYKTTPPVLDSDGSFFLYSKLTVDKSRWQQGNVFSCSVMHEALHNHYTQKSLSLSPGK |  |  |  | 0.083 nM |  | no binding (tested: 94 nM (top of the titration)) | 
human FLT3-ligand (Δ10 amino acid) human hingeless IgG1 fusion protein (SEQ ID NO:7) (Fc fusion) TQDCSFQHSPISSDFAVKIRELSDYLLQDYPVTVASNLQDEELCGGLWRLVLAQRWMERLKTVAGSKMQGLLERVNTEIHFVTKCAFQPPPSCLRFVQTNISRLLQETSEQLVALKPWITRQNFSRCLELQCQPDSSTLPPPWSPRPGGPSVFLFPPKPKDTLMISRTPEVTCVVVDVSHEDPEVKFNWYVDGVEVHNAKTKPREEQYNSTYRVVSVLTVLHQDWLNGKEYKCKVSNKALPAPIEKTISKAKGQPREPQVYTLPPSREEMTKNQVSLTCLVKGFYPSDIAVEWESNGQPENNYKTTPPVLDSDGSFFLYSKLTVDKSRWQQGNVFSCSVMHEALHNHYTQKSLSLSPGK |  |  |  | 0.071 nM |  | no binding (tested: 94 nM (top of the titration)) | 
human FLT3-ligand (Δ5 amino acid) human IgG4 (S228P/F234A/L235A/M252Y/S254T/T256E) fusion protein (SEQ ID NO:14) (Fc fusion, also called FLT3L ECD (Δ C-term 5aa (PTAPQ))-hG4 (S228P/F234A/L235A/M252Y/S254T/T256E)) TQDCSFQHSPISSDFAVKIRELSDYLLQDYPVTVASNLQDEELCGGLWRLVLAQRWMERLKTVAGSKMQGLLERVNTEIHFVTKCAFQPPPSCLRFVQTNISRLLQETSEQLVALKPWITRQNFSRCLELQCQPDSSTLPPPWSPRPLEATAESKYGPPCPPCPAPEAAGGPSVFLFPPKPKDTLYITREPEVTCVVVDVSQEDPEVQFNWYVDGVEVHNAKTKPREEQFNSTYRVVSVLTVLHQDWLNGKEYKCKVSNKGLPSSIEKTISKAKGQPREPQVYTLPPSQEEMTKNQVSLTCLVKGFYPSDIAVEWESNGQPENNYKTTPPVLDSDGSFFLYSRLTVDKSRWQEGNVFSCSVMHEALHNHYTQKSLSLSLGK |  |  |  |  | 0.046 nM |  | no binding (tested: 94 nM (top of the titration))
